PMC4376459, “CXCR3 antagonist VUF10085 binds to an intrahelical site distinct from that of the broad spectrum antagonist TAK-779” (British Journal of Pharmacology, 2015)
Substitutions are numbered along the chain they refer to.

Experiments:
CXCR3 F207A [1] = target: T1, CXCR3 F207A (Homo sapiens, UniProt P49682, F207A); assay: Chemotaxis assay, L1.2 transfectants migrating to CXCL11; assay type: cell-based
T1 construct: expressed in transfected cells; host or cells: murine pre-B cell line L1.2, transient transfection
T1 sequence (P49682 1-368 F207A): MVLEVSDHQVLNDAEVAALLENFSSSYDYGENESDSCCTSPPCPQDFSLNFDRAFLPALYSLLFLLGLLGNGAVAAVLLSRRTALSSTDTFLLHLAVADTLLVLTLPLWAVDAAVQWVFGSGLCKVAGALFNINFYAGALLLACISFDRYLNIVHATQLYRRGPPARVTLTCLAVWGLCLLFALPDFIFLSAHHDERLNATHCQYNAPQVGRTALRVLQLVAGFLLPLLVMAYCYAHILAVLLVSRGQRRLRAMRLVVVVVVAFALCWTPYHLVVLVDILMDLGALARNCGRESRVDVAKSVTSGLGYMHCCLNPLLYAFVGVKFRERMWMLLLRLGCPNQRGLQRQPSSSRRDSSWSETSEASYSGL
Procedure: (§1) A previously described pcDNA3 plasmid containing human wild type (WT) CXCR3 cDNA with an HA epitope tag encoded at the N terminus (Meiser et al., [2008]) was used as a template for the generation of point mutants by PCR using the QuikChange II site-directed mutagenesis kit (Stratagene, Amsterdam, the Netherlands). All constructs were verified by DNA sequencing (Eurofins MWG Operon, Ebersberg, Germany) before use. L1.2 cells were transiently transfected by electroporation with 1 μg of vector DNA/10^6 cells at 330V, 975μF and incubated overnight in medium supplemented with 10 mM of sodium butyrate to enhance gene expression.
(§2) Assays of chemotactic responsiveness were carried out as previously described (Vaidehi et al., [2009]) using 96-well ChemoTx® plates with 5 μm pores (Neuroprobe, Gaithersburg, MD, USA). Migrating cells were detected by the use of CellTiter Glo® Dye (Promega, Southampton, UK) and resulting luminescence measured using a TopCount scintillation counter (PerkinElmer, Waltham, MA, USA). Basal migration of cells to buffer alone was subtracted from the resulting data, with individual results expressed as a percentage of the total cells applied to the filter. In all experiments, each data point was assayed in duplicate. In every experiment, cells transiently expressing WT CXCR3 were used as a positive control.

CXCR3 N132A [2] = target: T2, CXCR3 N132A (Homo sapiens, UniProt P49682, N132A); assay: as above; assay type: cell-based
T2 construct: expressed in transfected cells; host or cells: murine pre-B cell line L1.2, transient transfection
T2 sequence (P49682 1-368 N132A): T1 sequence (P49682 1-368 F207A) with N132A, A207F
Procedure: as §1, §2

CXCR3 Y271A = target: T3, CXCR3 Y271A (Homo sapiens, UniProt P49682, Y271A); assay: Whole-cell 125I-CXCL11 binding assay, L1.2 transfectants; settings: maximum concentration of CXCL11
T3 construct: expressed in transfected cells; host or cells: murine pre-B cell line L1.2, transient transfection
T3 sequence (P49682 1-368 Y271A): T1 sequence (P49682 1-368 F207A) with A207F, Y271A
Procedure: as §1
(§3) Whole-cell binding assays on transiently transfected L1.2 cells were performed as described previously (Vaidehi et al., [2009]) using 0.1 nM ^125I-CXCL11 (Perkin Elmer) and increasing concentrations of unlabeled CXCL11 or antagonist. Cell-associated radioactivity was counted in a Canberra Packard Cobra 5010 gamma counter (Canberra Packard, Pangebourne, UK). Curve fitting and subsequent data analysis was carried out using the program PRISM (GraphPad Software, Inc., San Diego, CA, USA) and IC50 values were obtained by non-linear regression analysis. In all experiments, each data point was assayed in duplicate, with each individual experiment repeated three times. Background binding levels obtained in the presence of a 1000–3000 molar excess of unlabelled chemokine were subtracted from each data point and data are presented as the percentage of counts obtained in the absence of competing ligand. KD values and the number of binding sites per cell were calculated from homologous binding curves prepared in Graph Pad Prism (La Jolla, CA, USA) as previously described (Nedjai et al., [2011]).

CXCR3 F207A [3] = target: T1, CXCR3 F207A; assay: as above; settings: maximum concentration of CXCL11
Procedure: as §1, §3

CXCR3 N132A [4] = target: T2, CXCR3 N132A; assay: as above; settings: maximum concentration of CXCL11
Procedure: as §1, §3

CXCR3 H202A (ECL2) = target: T4, CXCR3 H202A (ECL2) (Homo sapiens, UniProt P49682, H202A); assay: as above; settings: 0.1 nM 125I-CXCL11, read-out: IC50 ligand binding (mean ± SEM)
T4 construct: expressed in transfected cells; host or cells: murine pre-B cell line L1.2, transient transfection
T4 sequence (P49682 1-368 H202A): T1 sequence (P49682 1-368 F207A) with H202A, A207F

CXCL11: recombinant human chemokine, CXCR3 agonist, purchased from PeproTech
% of WT chemotaxis to 30 nM CXCL11 (mean ± SEM) (CXCR3 F207A [1]): 0.8 ± 0.8% | % of WT chemotaxis to 30 nM CXCL11 (mean ± SEM) (CXCR3 N132A [2]): 0.7 ± 0.5% | displacement of 125I-CXCL11 by unlabelled CXCL11 (CXCR3 Y271A): unable to displace 50% | displacement of 125I-CXCL11 by unlabelled CXCL11 (CXCR3 F207A [3]): unable to displace 50% | displacement of 125I-CXCL11 by unlabelled CXCL11 (CXCR3 N132A [4]): unable to displace 50%

Cc1ccc(-c2ccc3c(c2)C=C(C(=O)Nc2ccc(C[N+](C)(C)C4CCOCC4)cc2)CCC3)cc1.[Cl-] [TAK-779, N,N-dimethyl-N-[4-[[[2-(4-methylphenyl)-6,7-dihydro-5H-benzocyclohepten-8-yl]-carbonyl]amino]benzyl] tetrahydro-2H-pyran-4-aminium chloride]
IC50 (CXCR3 H202A (ECL2)): 25.3 ± 10.2 µM
